Reference: US20150125424A1 (MICREOS B V, published 2015)

T1: Phage S16 (whole phage particle) (Phage S16, UniProt M1EAS5 1-638; M1EBB2 1-249)
T1 construct: The whole virion stood in the assay; All other virion proteins are left out; also called bacteriophage S16; CBS130493
T1 sequence 1: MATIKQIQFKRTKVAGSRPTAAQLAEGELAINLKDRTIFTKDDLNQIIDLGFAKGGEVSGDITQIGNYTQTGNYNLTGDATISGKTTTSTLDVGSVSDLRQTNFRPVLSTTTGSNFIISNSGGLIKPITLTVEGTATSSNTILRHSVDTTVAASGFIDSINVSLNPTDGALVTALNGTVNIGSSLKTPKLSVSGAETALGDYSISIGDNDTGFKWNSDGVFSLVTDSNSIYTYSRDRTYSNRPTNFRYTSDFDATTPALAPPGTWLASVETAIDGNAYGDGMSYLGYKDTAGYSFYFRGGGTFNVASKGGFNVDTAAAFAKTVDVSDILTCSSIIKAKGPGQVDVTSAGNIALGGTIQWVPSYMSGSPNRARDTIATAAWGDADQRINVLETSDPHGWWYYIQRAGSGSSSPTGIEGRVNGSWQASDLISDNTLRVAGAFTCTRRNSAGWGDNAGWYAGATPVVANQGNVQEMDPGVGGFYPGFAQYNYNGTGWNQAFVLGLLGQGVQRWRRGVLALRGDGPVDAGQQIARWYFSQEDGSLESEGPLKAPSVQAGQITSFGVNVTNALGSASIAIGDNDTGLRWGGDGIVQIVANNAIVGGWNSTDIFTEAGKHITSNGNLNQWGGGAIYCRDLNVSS
T1 sequence 2: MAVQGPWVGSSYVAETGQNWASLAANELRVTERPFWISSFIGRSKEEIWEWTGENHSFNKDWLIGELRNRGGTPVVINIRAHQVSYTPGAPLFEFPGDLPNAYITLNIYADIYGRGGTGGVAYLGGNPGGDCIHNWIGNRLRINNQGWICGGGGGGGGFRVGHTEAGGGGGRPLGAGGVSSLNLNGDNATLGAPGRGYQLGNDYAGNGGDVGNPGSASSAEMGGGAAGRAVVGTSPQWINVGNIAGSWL


Key:
[1] = target: outer membrane protein C (OmpC) of S. Typhimurium DT7155 (S. Typhimurium DT7155); test: control of competition in pull down assay; S. Tm. DT7155 wt cells pre-incubated with HGFP, then phage S16 added; value is remaining S16 adsorption
[2] = target: T1, Phage S16 (whole phage particle); test: pull down assay (phage adsorption) on E. coli K-12 wt and E. coli K-12 ΔompC::ompC(K-12) cells

Molecule	adsorption ratio of S16 after pre-incubation [1] [%]	binding result [2]
HGFP (6xHis-tagged GFP alone, control)	93.8	
OmpC of E. coli K-12 (receptor, whole, on cells; Presented on E. coli K-12 wt cells, or expressed in trans from pBAD18 Amp^r in E. coli K-12 ΔompC; also called ompC(K-12)) AEVYNKDGNKLDLYGKVDGLHYFSDNKDVDGDQTYMRLGFKGETQVTDQLTGYGQWEYQIQGNSAENENNSWTRVAFAGLKFQDVGSFDYGRNYGVVYDVTSWTDVLPEFGGDTYGSDNFMQQRGNGFATYRNTDFFGLVDGLNFAVQYQGKNGNPSGEGFTSGVTNNGRDALRQNGDGVGGSITYDYEGFGIGGAISSSKRTDAQNTAAYIGNGDRAETYTGGLKYDANNIYLAAQYTQTYNATRVGSLGWANKAQNFEAVAQYQFDFGLRPSLAYLQSKGKNLGRGYDDEDILKYVDVGATYYFNKNMSTYVDYKINLLDDNQFTRDAGINTDNIVALGLVYQF		no binding
